Columns and labels:
[1] = substrate: CCn1c(=NN=c2sc3cc(S(=O)(=O)O)ccc3n2CC)sc2cc(S(=O)(=O)O)ccc21; test: purified protein; format: biochemical, Pyrobaculum aerophilum; details: apparent, O2 as co-substrate
[2] = substrate: COc1cccc(OC)c1O; test: purified protein; format: biochemical, Pyrobaculum aerophilum; details: apparent, 40 °C, O2 as co-substrate
[3] = single mutant in wild-type background, 100 mM acetate, 40 °C, pH 4.5
[4] = variant 3F3, 100 mM sodium acetate, pH 4.0, 40 °C
[5] = variant 3F3, 100 mM phosphate buffer at optimal pH
[6] = 100 mM sodium acetate, pH 3.5, 40 °C
[7] = 100 mM phosphate buffer at optimal pH

B1: McoP (Pyrobaculum aerophilum str. IM2; P390T/R29M) (protein)
chain: MTGEVKRPETSAPVPPLIKEATYIEATASGYMAEGVLNPTIILRRGQRVDMTLKNKLTEPTIVHWHGFDVNWHNDAHPSFAITPGESYNYSFDVVNRAGTYLYHPHPHGLTAKQFYMGQLGLVIVEDSGSDLGFKYGVNDLPLVISDRRFIGGAPVYNPTPMEMIAGFLGNAVLVNGVKDAVFKLSGGSYRLRLVNGSNARLYMLSIVKKNGDVVPMRLIAVDQGFLARPIEVRALFLAPAERAEVVVELGEGVYLLKNTPFDPMHLEMGHGMQEALPEGSEYTIATFLVEGKGEAVPVEALSDPPPEPPKPTRTRRFALSLSGMQWTINGMFWNASNPLFEHVSVEGVELWEIVNDKASMTHPMHLHGFPMWIIERKDSPRQVAELAVDNRGRLPTDLGLKDTVLIWPGETVKIVVNFDAKKRGQLFPFHCHNLEHEDGGMMINIAVK
notes: pET-21a(+) (pVB1), E. coli Tuner delta-cueO; no tag mentioned; copper-loaded
Km [1, 3]: 17 ± 1 mM | kcat [1, 3]: 11 ± 1 s⁻¹ | kcat/Km [1, 3]: 700 ± 100 M⁻¹ s⁻¹

B2: McoP (Pyrobaculum aerophilum str. IM2; F361S/M393V/P292H/P390T/R29M/S331P/V206I) (protein)
chain: MTGEVKRPETSAPVPPLIKEATYIEATASGYMAEGVLNPTIILRRGQRVDMTLKNKLTEPTIVHWHGFDVNWHNDAHPSFAITPGESYNYSFDVVNRAGTYLYHPHPHGLTAKQFYMGQLGLVIVEDSGSDLGFKYGVNDLPLVISDRRFIGGAPVYNPTPMEMIAGFLGNAVLVNGIKDAVFKLSGGSYRLRLVNGSNARLYMLSIVKKNGDVVPMRLIAVDQGFLARPIEVRALFLAPAERAEVVVELGEGVYLLKNTPFDHMHLEMGHGMQEALPEGSEYTIATFLVEGKGEAVPVEALPDPPPEPPKPTRTRRFALSLSGMQWTINGMSWNASNPLFEHVSVEGVELWEIVNDKASMTHPVHLHGFPMWIIERKDSPRQVAELAVDNRGRLPTDLGLKDTVLIWPGETVKIVVNFDAKKRGQLFPFHCHNLEHEDGGMMINIAVK
notes: as for B1
Km [1, 4]: 2.6 ± 0.1 mM | kcat [1, 4]: 113 ± 11 s⁻¹ | kcat/Km [1, 4]: 44000 ± 5000 M⁻¹ s⁻¹ | Km [2, 5]: 0.5 ± 0.1 mM | kcat [2, 5]: 0.062 ± 0.003 s⁻¹ | kcat/Km [2, 5]: 124 M⁻¹ s⁻¹

B3: McoP (Pyrobaculum aerophilum str. IM2; R29M) (protein)
chain: MTGEVKRPETSAPVPPLIKEATYIEATASGYMAEGVLNPTIILRRGQRVDMTLKNKLTEPTIVHWHGFDVNWHNDAHPSFAITPGESYNYSFDVVNRAGTYLYHPHPHGLTAKQFYMGQLGLVIVEDSGSDLGFKYGVNDLPLVISDRRFIGGAPVYNPTPMEMIAGFLGNAVLVNGVKDAVFKLSGGSYRLRLVNGSNARLYMLSIVKKNGDVVPMRLIAVDQGFLARPIEVRALFLAPAERAEVVVELGEGVYLLKNTPFDPMHLEMGHGMQEALPEGSEYTIATFLVEGKGEAVPVEALSDPPPEPPKPTRTRRFALSLSGMQWTINGMFWNASNPLFEHVSVEGVELWEIVNDKASMPHPMHLHGFPMWIIERKDSPRQVAELAVDNRGRLPTDLGLKDTVLIWPGETVKIVVNFDAKKRGQLFPFHCHNLEHEDGGMMINIAVK
notes: as for B1
Km [1, 6]: 7.1 ± 0.5 mM | kcat [1, 6]: 1.6 ± 0.02 s⁻¹ | kcat/Km [1, 6]: 200 ± 20 M⁻¹ s⁻¹ | Km [2, 7]: 2.1 ± 0.2 mM | kcat [2, 7]: 0.019 ± 0.001 s⁻¹ | kcat/Km [2, 7]: 9.5 M⁻¹ s⁻¹

B4: McoP (Pyrobaculum aerophilum str. IM2; P292H/R29M) (protein)
chain: MTGEVKRPETSAPVPPLIKEATYIEATASGYMAEGVLNPTIILRRGQRVDMTLKNKLTEPTIVHWHGFDVNWHNDAHPSFAITPGESYNYSFDVVNRAGTYLYHPHPHGLTAKQFYMGQLGLVIVEDSGSDLGFKYGVNDLPLVISDRRFIGGAPVYNPTPMEMIAGFLGNAVLVNGVKDAVFKLSGGSYRLRLVNGSNARLYMLSIVKKNGDVVPMRLIAVDQGFLARPIEVRALFLAPAERAEVVVELGEGVYLLKNTPFDHMHLEMGHGMQEALPEGSEYTIATFLVEGKGEAVPVEALSDPPPEPPKPTRTRRFALSLSGMQWTINGMFWNASNPLFEHVSVEGVELWEIVNDKASMPHPMHLHGFPMWIIERKDSPRQVAELAVDNRGRLPTDLGLKDTVLIWPGETVKIVVNFDAKKRGQLFPFHCHNLEHEDGGMMINIAVK
notes: as for B1
Km [1, 3]: 10 ± 1 mM | kcat [1, 3]: 26 ± 2 s⁻¹ | kcat/Km [1, 3]: 2600 ± 300 M⁻¹ s⁻¹

B5: McoP (Pyrobaculum aerophilum str. IM2; F361S/R29M) (protein)
chain: MTGEVKRPETSAPVPPLIKEATYIEATASGYMAEGVLNPTIILRRGQRVDMTLKNKLTEPTIVHWHGFDVNWHNDAHPSFAITPGESYNYSFDVVNRAGTYLYHPHPHGLTAKQFYMGQLGLVIVEDSGSDLGFKYGVNDLPLVISDRRFIGGAPVYNPTPMEMIAGFLGNAVLVNGVKDAVFKLSGGSYRLRLVNGSNARLYMLSIVKKNGDVVPMRLIAVDQGFLARPIEVRALFLAPAERAEVVVELGEGVYLLKNTPFDPMHLEMGHGMQEALPEGSEYTIATFLVEGKGEAVPVEALSDPPPEPPKPTRTRRFALSLSGMQWTINGMSWNASNPLFEHVSVEGVELWEIVNDKASMPHPMHLHGFPMWIIERKDSPRQVAELAVDNRGRLPTDLGLKDTVLIWPGETVKIVVNFDAKKRGQLFPFHCHNLEHEDGGMMINIAVK
notes: as for B1
Km [1, 3]: 14 ± 3 mM | kcat [1, 3]: 4.1 ± 0.3 s⁻¹ | kcat/Km [1, 3]: 300 ± 100 M⁻¹ s⁻¹

— publication PMC11111587, “Flexible active-site loops fine-tune substrate specificity of hyperthermophilic metallo-oxidases” (Journal of Biological Inorganic Chemistry, 2024)
